Series [1] addresses T1, sclerostin (SOST) (Homo sapiens, UniProt Q9BQB4 SEQ:1-190). The series can be described thus: ELONA; PBS, 1 mM MgCl2, RT. Particulars: tags: His6 (stated for the SELEX protein); ELONA used purified recombinant human sclerostin. As to the method: (§1) An Enzyme-linked OligoNucleotide Assay (ELONA) was performed to determine the binding affinity of the aptamer candidates to sclerostin (Drolet, Moon-McDermott et al. 1996). Similarly, an Enzyme-linked ImmunoSorbent Assay (ELISA) was performed to determine the binding affinity of anti-sclerostin antibody to human sclerostin (Engvall and Perlmann 1971). 160 ng purified recombinant human sclerostin was coated to 96-well microtiter plate in 100 μl PBS by incubating at 4° C. overnight. The plate was then blocked with blocking buffer (PBS, 0.1% Tween 20 and 1% BSA) for 1 h at room temperature and washed with SELEX B&W buffer (PBS, 1 mM MgCl₂, 0.1% Tween 20 and 0.1% BSA) for 4 times. The aptamer candidates were denatured at 95° C. for 10 min and rapidly cooled on ice for 10 min before use. Appropriate concentrations of biotinylated aptamers/antibody were added into each well, then added SELEX B&W buffer to 100 μl and incubated for 45 min at room temperature with continuous gentle shaking. After binding, the plate was washed with SELEX B&W buffer for 4 times to remove non-specific and very weak binding, followed by washing with PBST+0.1% BSA for 4 times. 100 μl streptavidin-HRP/goat anti-human IgG Fc-HRP (1:10000 dilute into PBST+0.1% BSA) was added to each well and incubated for 30/60 min and washed with PBST+0.1% BSA for 4 times. 50 μl TMB was added to each well and incubated for 20 min. The reaction was stopped by adding 50 μl 2 M H₂SO₄. Absorbance at 450 nm was measured with microplate reader (Stoltenburg, Krafcikova et al. 2016). Data was analyzed with Origin software (OriginLab, Northampton, Mass.). A non-linear curve fitting model Hyperbl was used to plot is the binding curve. Equation of Hyperbl model is y=P1*x/(P2+x) and P2 is the Kd value.

The target in series [2] is T1, sclerostin (SOST). The series can be described thus: ELONA; PBS, 1 mM MgCl2, RT. Conditions: tags: His6 (stated for the SELEX protein); ELONA used purified recombinant human sclerostin. As to the method:
as §1
(§2) Binding affinity and in vitro inhibition potency were performed using the same protocols in previous studies.
The source holds these as a separate data set.

Series [3] has as its target T1, sclerostin (SOST). Nature of the series: ELONA; PBS, 1 mM MgCl2, RT. Particulars: tags: His6 (stated for the SELEX protein); ELONA used purified recombinant human sclerostin. This is another data set of the same source.
Series [4] concerns the target T2, sclerostin (SOST), expressed from plasmid in MC3T3-E1 cells (UniProt Q9BQB4 SEQ:1-190). The series can be described thus: cell_activity; TOP-Wnt luciferase reporter; stated as inhibition potency. On the technique in general: Reporter assays use an easily measured gene product as a stand-in for the process of interest.
The target of series [5] is T2, sclerostin (SOST), expressed from …. Nature of the series: cell_activity; TOP-Wnt luciferase reporter, MC3T3-E1. As to the method:
(§3) MC3T3-E1 cells were seeded in 24-well plates and cells were transfected with corresponding reporter plasmid (100 ng), Wnt3a plasmid (800 ng) and sclerostin plasmid (800 ng) as necessary using FuGENE HD transfection reagent (Promega) in the following day. 10 hours after transfection, culture medium was changed to fresh medium and cells were treated with aptamers/antibody. 24 hours after treatment, each well of cells was lysed with 100 μl passive lysis buffer and 20 μl was taken for analysis. The Luciferase Assay Reagent II and Stop & Glo Reagent were prepared and added automatically by SpectraMax i3x Multi-Mode Detection Platform (Molecular Device) according to the manufacturer's protocol (Promega) and data was analyzed accordingly (Grentzmann, Ingram et al. 1998, McNabb, Reed et al. 2005).
as §2

The target in series [6] is T1, sclerostin (SOST). Nature of the series: ELONA; PBS, 1 mM MgCl2, 0.1% Tween 20, 0.1% BSA, RT. Particulars: tags: His6 (stated for the SELEX protein); ELONA used purified recombinant human sclerostin. As to the method: as §1, with “100 μl streptavidin-HRP/goat anti-human IgG Fc-HRP (1:10000 dilute into PBST+0.1% BSA) was added to each well and incubated for 30/60 min and washed with PBST+0.1% BSA for 4 times. 50 μl TMB was added to each well and incubated for 20 min. The reaction was stopped by adding 50 μl 2 M H₂SO₄.” left out, “A non-linear curve fitting model Hyperbl was used to plot is the binding curve. Equation of Hyperbl model is y=P1*x/(P2+x) and P2 is the Kd value.” left out

The target in series [7] is T2, sclerostin (SOST), expressed from …. The series can be described thus: cell_activity; TOP-Wnt luciferase reporter, MC3T3-E1. As to the method: as §3
The inhibition to sclerostin was dose dependent and the response was stable when the concentrations of aptscl 56 and 6 reached to 25 and 47.4 μg/ml, respectively. While treated with antibody, the response was still not stable with the concentration increasing to 20 mg/ml. Furthermore, the inhibition potency of aptscl 56, aptscl 6 and aptscl 3 was analyzed with non-linear curve fitting.
This is another data set of the same source.

Series [8] deals with T1, sclerostin (SOST). Nature of the series: ELONA; PBS, 1 mM MgCl2, RT; Table 2 gives 0.02 nM. Particulars: tags: His6 (stated for the SELEX protein); ELONA used purified recombinant human sclerostin. As to the method: as §1, with “100 μl streptavidin-HRP/goat anti-human IgG Fc-HRP (1:10000 dilute into PBST+0.1% BSA) was added to each well and incubated for 30/60 min and washed with PBST+0.1% BSA for 4 times. 50 μl TMB was added to each well and incubated for 20 min. The reaction was stopped by adding 50 μl 2 M H₂SO₄.” left out, “A non-linear curve fitting model Hyperbl was used to plot is the binding curve. Equation of Hyperbl model is y=P1*x/(P2+x) and P2 is the Kd value.” left out

T2 sequence (Q9BQB4 24-213): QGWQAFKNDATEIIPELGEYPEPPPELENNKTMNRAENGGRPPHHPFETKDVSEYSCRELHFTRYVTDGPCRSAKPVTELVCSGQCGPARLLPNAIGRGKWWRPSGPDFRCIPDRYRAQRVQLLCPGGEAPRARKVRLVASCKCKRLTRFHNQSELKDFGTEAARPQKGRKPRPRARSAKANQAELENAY
T1 sequence (Q9BQB4 24-213): as above

B1: aptscl 2 (ssDNA)
DNA: CGTACGGTCGACGCTAGCCAGCCAAAGACAGAGATGCACGTGGAGCTCGGATCC
Broadly, the Kd is the free concentration of one partner at which half of the binding sites on the other are occupied at equilibrium, for simple one-to-one binding. B1: the Kd in the series with sclerostin (SOST) [1] turned out to be 0.006 nM.

Turning to GTCGACGCTAGCTGTTGTACATCGCCTTACGCACGTG (ssDNA) [aptscl 3-4], the Kd with sclerostin (SOST) [2] is 0.22 nM.

One may read the EC50 as the concentration that produces a half-maximal response. A lower EC50 goes with a more potent agent. Take CGGGGTGTGGGTTCGTCGTTAGCTTGATTTGGCAGCTGCCC (ssDNA, 2'-OMe at first four (CGGG) and last four (GCCC) nucleotides; 3' idT) [modified aptscl 56]: the Kd in the series with sclerostin (SOST) [3] stood at 6.55 nM. The midpoint of the response in series [4], the EC50, lay at 14 µg/mL.

B2: aptscl 8 (ssDNA)
DNA: CGTACGGTCGACGCTAGCCGGCGAAATTGCTACCACGTGGAGCTCGGATCC
As for B2, the Kd with sclerostin (SOST) [1] turned out to be 0.005 nM.

B3: aptscl 32 (ssDNA)
DNA: CGTACGGTCGACGCTAGCTGTGTTAATCGCCGTACCTCCACGTGGAGCTCGGATCC
On to B3, for which the Kd with sclerostin (SOST) [1] worked out at 0.18 nM.

B4: aptscl 29 (ssDNA)
DNA: CGTACGGTCGACGCTAGCCGGAGACCTGAGGTTCACGTGGAGCTCGGATCC
As for B4, in the series with sclerostin (SOST) [1], the Kd turned out to be 0.28 nM.

Take GCTAGCTGTTGTACATCGCCTTACGCACGTGGAGCTC (ssDNA) [aptscl 3-3]: the Kd with sclerostin (SOST) [2] amounted to 0.2 nM.

B5: aptscl 51 (ssDNA)
DNA: CGTACGGTCGACGCTAGCTGGGGGTAGGGGGTCCTTGGCTACGGTGATTCGGATGTGACACGTGGAGCTCGGATCC
As to B5, the Kd with sclerostin (SOST) [1] is 62.2 nM.

Turning to CGTACGGTCGACGCTAGCTGTTGTACATCGCCTTACGCACGTGGAGCTC (ssDNA) [aptscl 3-2], in the series with sclerostin (SOST) [2], the dissociation constant Kd was determined as 0.52 nM.

B6: aptscl 5 (ssDNA)
DNA: CGTACGGTCGACGCTAGCTGTTGTTCATCGACTTGACGCACGTGGAGCTCGGATCC
As to B6, in the series with sclerostin (SOST) [1], the Kd was found to be 0.005 nM.

B7: aptscl 1 (ssDNA)
DNA: CGTACGGTCGACGCTAGCTCTTGTTCATCGATCCTACGCACGTGGAGCTCGGATCC
For the molecule B7, the dissociation constant Kd in the series with sclerostin (SOST) [1] turned out to be 0.02 nM.

Consider GCTAGCTGTTGTACATCGCCTTACGCACGTG (ssDNA) [aptscl 3-5], for which, in the series with sclerostin (SOST) [2], the Kd is 0.22 nM. Besides, in series [5], the EC50 turned out to be 28.4 µg/mL.

For GCTAGCTGTTGTACATCGCCTTACGCACGTG (ssDNA, 2'-OMe at first four (GCTA) and last four (CGTG) nucleotides; 3' idT) [modified aptscl 3-5], in the series with sclerostin (SOST) [3], the Kd is 0.54 nM. A half-maximal response in series [4] (EC50) required 11 µg/mL.

For GTCGACGCTAGCTGTTGTACATCGCCTTACGCACGTGGAGCTCGGATCC (ssDNA) [aptscl 3-1], in the series with sclerostin (SOST) [2], the Kd stood at 0.86 nM.

As for CGGGGTGTGGGTTCGTCGTTAGCTTGATTTGGCAGCTGCC (ssDNA) [aptscl 56], the Kd with sclerostin (SOST) [6] is 43.1 nM. For the same molecule, the midpoint of the response in series [7], the EC50, lay at 19.7 µg/mL.

B8: aptscl 6 (ssDNA)
DNA: CGTACGGTCGACGCTAGCTGGAAGGGTGGGGGCGGGGGGTCCTCGCCTCGAACGTACGCACGTGGAGCTCGGATCC
Consider B8, for which the Kd in the series with sclerostin (SOST) [1] worked out at 4.2 nM. In series [7], this molecule showed an EC50 of 36.8 µg/mL.

B9: aptscl 3 (ssDNA)
DNA: CGTACGGTCGACGCTAGCTGTTGTACATCGCCTTACGCACGTGGAGCTCGGATCC
In the case of B9, in the series with sclerostin (SOST) [8], the Kd is 0.04 nM. Besides, the EC50 in series [7] was determined as 18.2 µg/mL.

B10: aptscl 12 (ssDNA)
DNA: CGTACGGTCGACGCTAGCCGTTGACTCGTTGCTACACGTGGAGCTCGGATCC
For the molecule B10, the Kd with sclerostin (SOST) [1] stood at 0.005 nM.

B11: aptscl 9 (ssDNA)
DNA: CGTACGGTCGACGCTAGCTGGGGGTAGGGGGACCCTGGCTAGTTAGTCACCGTTTCGACACGTGGAGCTCGGATCC
B11: the Kd with sclerostin (SOST) [1] was 3.4 nM.

B12: aptscl 22 (ssDNA)
DNA: CGTACGGTCGACGCTAGCTGGGTTTATCGACTAGTTCCACGTGGAGCTCGGATCC
With B12, in the series with sclerostin (SOST) [1], the equilibrium dissociation constant (Kd) was 0.76 nM.

CCCAGACGAGACACCTCATGCTTTTCCCCGGGGGAGGGGTAT (ssDNA) [aptscl 132]: in the series with sclerostin (SOST) [1], the Kd turned out to be 42.2 nM.

(Values after US20210198672A1, “APTAMER FOR SCLEROSTIN AND USE THEREOF” (APTACURE THERAPEUTICS LIMITED, published 2021).)
